Data: article PMC4453016, “Novel Bifunctional Cyclic Chelator for ^89Zr Labeling–Radiolabeling and Targeting Properties of RGD Conjugates” (Molecular Pharmaceutics, 2015)
Like-named read-outs stand apart in the source and are kept apart here. Values belong to the molecule of their own block, whether it stands above or below them.

Key:
[1] = tested on: M21 cells (αvβ3 integrin positive); test: Internalization assay; format: cell-based, human; settings: 37 °C, 90 min, total series
Procedure: M21 cells (αvβ3 integrin positive) were diluted with RPMI 1640 (Gibco, Invitrogen Corporation, Paisley, UK) containing 1% glutamine (m/v), 1% bovine serum albumin (BSA) (m/v), CaCl2 (1 mM), MgCl2 (1 mM), and MnCl2 (10 mM) to a concentration of 2.0 × 10^6 cells/mL. Aliquots of 1 mL cell solution were transferred to Eppendorf tubes for incubation at 37 °C for 1 h. After addition of [^89Zr]FSC(RGDfE)3, [^89Zr]FSC(succ-RGD)3, or [^89Zr]FSC(Mal-RGD)3 (approximately 1.5 × 10^6 cpm), the cells were incubated in triplicates with either PBS with 0.5% BSA (150 μL, total series) or with 10 μM c(RGDyV) in PBS/0.5% BSA (150 μL, nonspecific series) at 37 °C for 90 min. After the incubation time the tubes were centrifuged, and incubation was stopped by removal of the medium. Then the cells were washed twice with ice-cold TRIS-buffered saline. Subsequently, the cells were incubated two times in acid wash buffer (20 mM acetate buffer, pH 4.5) at 37 °C for 5 min. Then the tubes were centrifuged, and the supernatant was collected in plastic vials (membrane bound activity). In a last step the cells were lysed by addition of 2 M NaOH, and the radioactivity associated with cells was collected in plastic vials (internalized radioligand fraction). Protein content in the NaOH fraction was determined using a spectrometric method (Bradford assay). The internalized activity was calculated and expressed as percentage of total activity per milligram protein.

[2] = pH 7.4
[3] = set-up: species or system BALB/c nude mice; settings: mouse, in vivo, iv
Procedure: (§1) For the evaluation of biodistribution, four healthy female BALB/c mice (Charles River Laboratories, Sulzfeld, GER) were intravenously injected with [^89Zr]TAFC (∼1.5 MBq/mouse, ∼4 μg of precursor) into the tail vein and sacrificed at 6 h postinjection (p.i.). For the evaluation of tumor uptake of [^89Zr]FSC(succ-RGD)3 female, athymic BALB/c nude mice (Charles River Laboratories) were used. For the induction of tumor xenografts mice were injected subcutaneously with 5 × 10^6 αvβ3 integrin positive M21 cells into the right hind limb and with 5 × 10^6 αvβ3 integrin negative M21-L cells (negative control) into the left hind limb of the same mouse (n = 4). The tumors were allowed to grow until they had reached a volume of 0.3 to 0.6 cm^3. On the day of the experiment [^89Zr]FSC(succ-RGD)3 (∼0.5 MBq/mouse, ∼0.5 μg of peptide) was intravenously injected in the lateral tail vein. Mice were sacrificed by cervical dislocation at 1, 2, and 4 h after injection. Organs (spleen, pancreas, stomach, intestine, kidney, liver, heart, and lung), blood, muscle tissue, bone, and tumors were dissected and weighted. As a comparison, four tumor-bearing mice were intravenously injected in the tail vein with [^68Ga]FSC(succ-RGD)3 (∼0.5 MBq/mouse, ∼0.5 μg of precursor) and sacrificed at 1 h p.i. Activity of the different samples was measured in the gamma counter. Results were expressed as percentage of injected dose per gram tissue (% ID/g).

[4] = Stability assay in 1000-fold molar excess of EDTA solution (ITLC); format: physicochemical; settings: competitor EDTA 1000-fold excess, 37 °C, n = 3
Procedure: Determination of the stability of [^89Zr]DFO, [^89Zr]TAFC, and [^89Zr]FSC-RGD conjugates was carried out by incubating the radioligands in PBS, 1000-fold molar excess of EDTA solution with different pH (pH 7 and pH 6; radioligand vs EDTA: 25 μM vs 25 mM) as well as in human serum for 7 days at 37 °C, respectively. At selected time points three aliquots of PBS and EDTA solution were analyzed directly via ITLC, while the three serum aliquots were mixed with 500 μL of CH3CN, vortexed, and centrifuged at 20,000 rcf for 2 min prior to analysis.

[5] = tested on: αvβ3 integrin positive M21 and αvβ3 integrin negative M21-L tumor xenografts; format: in vivo, BALB/c nude mice; settings: ~5 MBq/mouse i.v., monitoring period of 24 h
Procedure: MicroPET/CT imaging experiments were conducted on an Inveon microPET/CT scanner (Siemens Preclinical Solutions, Knoxville, USA). A group of four M21-tumor xenograft bearing BALB/c nude mice were administered with [^89Zr]FSC(succ-RGD)3 (∼5 MBq/mouse, ∼5 μg of peptide) via intravenous tail vein injection. MicroPET images were acquired under general anesthesia (isoflurane/O2) for 20 min. PET data for each mouse were recorded via static scans at 1, 4, and 24 h p.i. The microPET scans were reconstructed with Inveon Acquisition Workplace software (version 1.5; Siemens Preclinical Solutions), using a 3-dimensional fast maximum a posteriori algorithm with the following parameters: matrix, 256 × 256 × 161; pixel size, 0.4 × 0.4 × 0.8 mm; β-value of 1.5 mm resolution with uniform variance.

[6] = tested on: αvβ3 integrin positive M21 and αvβ3 integrin negative M21-L tumor xenografts; set-up: species or system BALB/c nude mice; settings: mouse, in vivo, iv, 1 h
Procedure: as §1

[7] = uptake in αvβ3 integrin positive M21 tumor

Compound: C/C1=C/C(=O)N(O)CCC[C@H](NC(=O)CCN2C(=O)CC(SCCOCCOCCOCCOCCC(=O)NCCCC[C@@H]3NC(=O)[C@@H](Cc4ccccc4)NC(=O)[C@H](CC(=O)O)NC(=O)CNC(=O)[C@H](CCCNC(=N)N)NC3=O)C2=O)C(=O)OCC/C(C)=C\C(=O)N(O)CCC[C@H](NC(=O)CCN2C(=O)CC(SCCOCCOCCOCCOCCC(=O)NCCCC[C@@H]3NC(=O)[C@@H](Cc4ccccc4)NC(=O)[C@H](CC(=O)O)NC(=O)CNC(=O)[C@H](CCCNC(=N)N)NC3=O)C2=O)C(=O)OCC/C(C)=C\C(=O)N(O)CCC[C@H](NC(=O)CCN2C(=O)CC(SCCOCCOCCOCCOCCC(=O)NCCCC[C@@H]3NC(=O)[C@@H](Cc4ccccc4)NC(=O)[C@H](CC(=O)O)NC(=O)CNC(=O)[C@H](CCCNC(=N)N)NC3=O)C2=O)C(=O)OCC1 (stereo partly shown) [[^89Zr]FSC(Mal-RGD)3, metal not drawn]
- internalized activity, % of total activity per milligram protein [1]: 1.6 ± 0.1 % cpm/mg
- logD [2]: -2.9

- tissue uptake at 4 h ([3]; uptake in αvβ3 integrin negative M21-L tumors): 0.5 %ID/g
- tissue uptake at 1 h [3, 7]: 2.83 ± 0.6 %ID/g
- tissue uptake at 2 h [3, 7]: 3.48 ± 0.45 %ID/g
- tissue uptake at 4 h [3, 7]: 2.86 ± 0.3 %ID/g
Compound: C/C1=C/C(=O)N(O)CCC[C@H](NC(=O)CCC(=O)NCCCC[C@@H]2NC(=O)[C@@H](Cc3ccccc3)NC(=O)[C@H](CC(=O)O)NC(=O)CNC(=O)[C@H](CCCNC(=N)N)NC2=O)C(=O)OCC/C(C)=C\C(=O)N(O)CCC[C@H](NC(=O)CCC(=O)NCCCC[C@@H]2NC(=O)[C@@H](Cc3ccccc3)NC(=O)[C@H](CC(=O)O)NC(=O)CNC(=O)[C@H](CCCNC(=N)N)NC2=O)C(=O)OCC/C(C)=C\C(=O)N(O)CCC[C@H](NC(=O)CCC(=O)NCCCC[C@@H]2NC(=O)[C@@H](Cc3ccccc3)NC(=O)[C@H](CC(=O)O)NC(=O)CNC(=O)[C@H](CCCNC(=N)N)NC2=O)C(=O)OCC1 [[^89Zr]FSC(succ-RGD)3, metal not drawn]
- logD [2]: -2.9
- tissue uptake at 1 h ([3]; activity in kidneys): 6.42 ± 0.72 %ID/g
- tissue uptake at 2 h ([3]; activity in kidneys): 5.77 ± 0.2 %ID/g
- tissue uptake at 4 h ([3]; activity in kidneys): 5.26 ± 0.9 %ID/g
- tissue uptake at 1 h ([3]; activity in the bone): 0.71 ± 0.05 %ID/g
- tissue uptake at 2 h ([3]; activity in the bone): 0.79 ± 0.28 %ID/g
- tissue uptake at 4 h ([3]; activity in the bone): 0.73 ± 0.27 %ID/g
- tissue uptake at 2 h ([3]; blood activity): 0.15 %ID/g
- tissue uptake at 4 h ([3]; blood activity): 0.1 ± 0.01 %ID/g
- tissue uptake at 1 h ([3]; uptake in the spleen): 1.78 ± 0.22 %ID/g

Compound: C/C1=C/C(=O)N(O)CCC[C@H](NC(=O)CCC(=O)NCCCC[C@@H]2NC(=O)[C@@H](Cc3ccccc3)NC(=O)[C@H](CC(=O)O)NC(=O)CNC(=O)[C@H](CCCNC(=N)N)NC2=O)C(=O)OCC/C(C)=C\C(=O)N(O)CCC[C@H](NC(=O)CCC(=O)NCCCC[C@@H]2NC(=O)[C@@H](Cc3ccccc3)NC(=O)[C@H](CC(=O)O)NC(=O)CNC(=O)[C@H](CCCNC(=N)N)NC2=O)C(=O)OCC/C(C)=C\C(=O)N(O)CCC[C@H](NC(=O)CCC(=O)NCCCC[C@@H]2NC(=O)[C@@H](Cc3ccccc3)NC(=O)[C@H](CC(=O)O)NC(=O)CNC(=O)[C@H](CCCNC(=N)N)NC2=O)C(=O)OCC1 [[^89Zr]FSC(succ-RGD)3] [metal not drawn]
- internalized activity, % of total activity per milligram protein [1]: 2.1 ± 0.3 % cpm/mg
- % intact starting species by incubation time ([4]; pH 7, 1 h): 98.2 ± 0.1%
- % intact starting species by incubation time ([4]; pH 7, 4 h): 98.2 ± 0.1%
- % intact starting species by incubation time ([4]; pH 7, 1 d): 96.5 ± 0.5%
- % intact starting species by incubation time ([4]; pH 7, 3 d): 96.0 ± 0.4%
- % intact starting species by incubation time ([4]; pH 7, 5 d): 94.5 ± 0.3%
- % intact starting species by incubation time ([4]; pH 7, 7 d): 93.9 ± 0.7%
- uptake in αvβ3 integrin negative M21-L tumors in microPET/CT [5]: no uptake
- visualization of αvβ3 integrin positive M21 tumors in microPET/CT [5]: clearly visualized over the whole monitoring period of 24 h
- blood activity [6]: 0.16 ± 0.04 % ID/g

Compound: C/C1=C/C(=O)N(O)CCC[C@H](NC(=O)CC[C@@H]2NC(=O)[C@@H](Cc3ccccc3)NC(=O)[C@H](CC(=O)O)NC(=O)CNC(=O)[C@H](CCCNC(=N)N)NC2=O)C(=O)OCC/C(C)=C\C(=O)N(O)CCC[C@H](NC(=O)CC[C@@H]2NC(=O)[C@@H](Cc3ccccc3)NC(=O)[C@H](CC(=O)O)NC(=O)CNC(=O)[C@H](CCCNC(=N)N)NC2=O)C(=O)OCC/C(C)=C\C(=O)N(O)CCC[C@H](NC(=O)CC[C@@H]2NC(=O)[C@@H](Cc3ccccc3)NC(=O)[C@H](CC(=O)O)NC(=O)CNC(=O)[C@H](CCCNC(=N)N)NC2=O)C(=O)OCC1 [[^89Zr]FSC(RGDfE)3, metal not drawn]
- internalized activity, % of total activity per milligram protein [1]: 2.3 ± 0.3 % cpm/mg
- logD [2]: -3

- uptake in αvβ3 integrin negative M21-L tumors [6]: 1.10 ± 0.30 % ID/g
Compound: C/C1=C/C(=O)N(O)CCC[C@H](NC(=O)CCC(=O)NCCCC[C@@H]2NC(=O)[C@@H](Cc3ccccc3)NC(=O)[C@H](CC(=O)O)NC(=O)CNC(=O)[C@H](CCCNC(=N)N)NC2=O)C(=O)OCC/C(C)=C\C(=O)N(O)CCC[C@H](NC(=O)CCC(=O)NCCCC[C@@H]2NC(=O)[C@@H](Cc3ccccc3)NC(=O)[C@H](CC(=O)O)NC(=O)CNC(=O)[C@H](CCCNC(=N)N)NC2=O)C(=O)OCC/C(C)=C\C(=O)N(O)CCC[C@H](NC(=O)CCC(=O)NCCCC[C@@H]2NC(=O)[C@@H](Cc3ccccc3)NC(=O)[C@H](CC(=O)O)NC(=O)CNC(=O)[C@H](CCCNC(=N)N)NC2=O)C(=O)OCC1 [[^68Ga]FSC(succ-RGD)3] [metal not drawn, reference compound]
- blood activity [6]: 0.63 ± 0.26 % ID/g
- uptake in the spleen [6]: 3.27 ± 0.64 % ID/g
